As a reminder, the Kd is a measure of binding affinity in units of concentration. Higher therefore signals lower affinity.

Experiment [1] deals with BG505 DS-SOSIP.664 Env trimer (HIV-1). Put plainly: ITC, 37 C, PBS pH 7.4, antibody titrated into trimer.
The target of experiment [2] is CAP256 soluble Env trimer (clade C), stabilized in the prefusion-closed conformation (HIV-1). As to the kind of experiment: ELISA, lectin-captured trimer, expression supernatant, single point, OD 450 nm. (In general: In an ELISA, binding on a coated surface is turned into a signal by an enzyme label.)
Experiment [3] deals with JRFL soluble Env trimer (clade B), stabilized in the prefusion-closed conformation (HIV-1). The experiment is described as above.
The target of experiment [4] is K169V variant of CAP256 soluble Env trimer (HIV-1). The experiment is described as above.
Experiment [5] concerns the target 426C-WITO soluble Env trimer (clade B), stabilized in the prefusion-closed conformation (HIV-1). Put plainly: ELISA, lectin-captured trimer, expression supernatant, single point, OD 450 nm, column 426c-WITO-degly3.
For experiment [6], the target named is BG505 DS-SOSIP.664 Env trimer (HIV-1). As to the kind of experiment: ITC, 37 C, PBS pH 7.4, nanobody titrated into trimer. (In ITC the heat of successive injections is recorded.)

B1: CAP256V2LS (antibody, V domains shown)
VH: QVQLVESGGGVVQPGTSLRLSCAASQFRFDGYGMHWVRQAPGKGLEWVASISHDGIKKYHAEKVWGRFTISRDNSKNTLYLQMNSLRPEDTALYYCAKDLREDECEEWWSDYYDFGAQLPCAKSRGGLVGIADNWGQGTMVTVSS
VL: QSVLTQPPSVSAAPGQKVTISCSGNTSNIGNNFVSWYQQRPGRAPQLLIYETDKRPSGIPDRFSASKSGTSGTLAITGLQTGDEADYYCATWAASLSSARVFGTGTQVIVLG
Take B1: in experiment [1], the -TΔS turned out to be 15 kcal/mol, the Kd is 34 nM, the N (stoichiometry) (Antigen Binding Sites per Trimer) came out at 1 and the ΔG was -10.6 kcal/mol. The same molecule had a ΔH in experiment [1] of -25.6 kcal/mol. The ELISA binding in experiment [2] was determined as 2.16. The ELISA binding in experiment [3] turned out to be 0.361. This molecule registered an ELISA binding in experiment [4] of 2.42. For the same molecule, the ELISA binding in experiment [5] is 0.382.

B2: J3 nanobody (VHH)
VHH: EVQLVESGGGLVQAGGFLRLSCELRGSIFNQYAMAWFRQAPGKEREFVAGMGAVPHYGEFVKGRFTISRDNAKSTVYLQMSSLKPEDTAIYFCARSKSTYISYNSNGYDYWGRGTQVTVSS
For the molecule B2, in experiment [6], the -TΔS was determined as 1.4 kcal/mol, the dissociation constant (Kd) was 92 nM, the N (stoichiometry) (Antigen Binding Sites per Trimer) is 3.1 and the ΔG is -10 kcal/mol. For the same molecule, the ΔH in experiment [6] is -11.4 kcal/mol.
